Experimental data published in PMC4201289 (Genes & Development, 2014).

T1: Mcm4 (subunit in the Mcm2–7 double hexamer) (S. cerevisiae, UniProt P30665 1-933)
T1 sequence: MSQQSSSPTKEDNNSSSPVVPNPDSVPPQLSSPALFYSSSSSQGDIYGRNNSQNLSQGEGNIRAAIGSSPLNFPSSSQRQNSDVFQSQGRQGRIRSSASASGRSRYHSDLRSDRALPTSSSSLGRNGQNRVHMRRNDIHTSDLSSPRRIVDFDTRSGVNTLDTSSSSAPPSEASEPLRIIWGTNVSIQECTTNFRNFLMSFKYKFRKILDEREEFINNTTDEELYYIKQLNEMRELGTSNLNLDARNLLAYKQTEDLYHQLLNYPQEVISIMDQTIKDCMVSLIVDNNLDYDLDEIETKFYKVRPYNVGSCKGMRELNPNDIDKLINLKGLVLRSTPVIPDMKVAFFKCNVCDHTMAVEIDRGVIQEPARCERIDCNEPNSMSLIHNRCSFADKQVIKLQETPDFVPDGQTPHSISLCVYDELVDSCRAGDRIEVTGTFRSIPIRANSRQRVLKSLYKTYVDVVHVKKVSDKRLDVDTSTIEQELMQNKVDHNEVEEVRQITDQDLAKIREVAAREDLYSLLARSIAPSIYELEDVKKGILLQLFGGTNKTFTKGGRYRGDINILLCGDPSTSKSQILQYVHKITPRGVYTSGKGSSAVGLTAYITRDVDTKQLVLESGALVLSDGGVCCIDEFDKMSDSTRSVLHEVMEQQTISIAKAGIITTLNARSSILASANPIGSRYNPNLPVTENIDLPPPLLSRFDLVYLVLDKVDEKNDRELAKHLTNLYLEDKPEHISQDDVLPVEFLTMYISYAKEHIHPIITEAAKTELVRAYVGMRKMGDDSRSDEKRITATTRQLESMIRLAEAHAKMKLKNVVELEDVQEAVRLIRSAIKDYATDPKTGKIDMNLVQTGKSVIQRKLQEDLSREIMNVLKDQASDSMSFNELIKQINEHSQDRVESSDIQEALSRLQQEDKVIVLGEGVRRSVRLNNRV

B1: Mcm5 (subunit in the Mcm2–7 double hexamer) (natural protein)
chain: MSFDRPEIYSAPVLQGESPNDDDNTEIIKSFKNFILEFRLDSQFIYRDQLRNNILVKNYSLTVNMEHLIGYNEDIYKKLSDEPSDIIPLFETAITQVAKRISILSRAQSANNNDKDPENTSMDTDSLLLNSLPTFQLILNSNANQIPLRDLDSEHVSKIVRLSGIIISTSVLSSRATYLSIMCRNCRHTTSITINNFNSITGNTVSLPRSCLSTIESESSMANESNIGDESTKKNCGPDPYIIIHESSKFIDQQFLKLQEIPELVPVGEMPRNLTMTCDRYLTNKVIPGTRVTIVGIYSIYNSKNGAGSGRSGGGNGGSGVAIRTPYIKILGIQSDVETSSIWNSVTMFTEEEEEEFLQLSRNPKLYEILTNSIAPSIFGNEDIKKAIVCLLMGGSKKILPDGMRLRGDINVLLLGDPGTAKSQLLKFVEKVSPIAVYTSGKGSSAAGLTASVQRDPMTREFYLEGGAMVLADGGVVCIDEFDKMRDEDRVAIHEAMEQQTISIAKAGITTVLNSRTSVLAAANPIYGRYDDLKSPGDNIDFQTTILSRFDMIFIVKDDHNEERDISIANHVINIHTGNANAMQNQQEENGSEISIEKMKRYITYCRLKCAPRLSPQAAEKLSSNFVTIRKQLLINELESTERSSIPITIRQLEAIIRITESLAKLELSPIAQERHVDEAIRLFQASTMDAASQDPIGGLNQASGTSLSEIRRFEQELKRRLPIGWSTSYQTLRREFVDTHRFSQLALDKALYALEKHETIQLRHQGQNIYRSGV
B2: Mcm2 (subunit in the Mcm2–7 double hexamer) (natural protein)
chain: MSDNRRRRREEDDSDSENELPPSSPQQHFRGGMNPVSSPIGSPDMINPEGDDNEVDDVPDIDEVEEQMNEVDLMDDNMYEDYAADHNRDRYDPDQVDDREQQELSLSERRRIDAQLNERDRLLRNVAYIDDEDEEQEGAAQLDEMGLPVQRRRRRRQYEDLENSDDDLLSDMDIDPLREELTLESLSNVKANSYSEWITQPNVSRTIARELKSFLLEYTDETGRSVYGARIRTLGEMNSESLEVNYRHLAESKAILALFLAKCPEEMLKIFDLVAMEATELHYPDYARIHSEIHVRISDFPTIYSLRELRESNLSSLVRVTGVVTRRTGVFPQLKYVKFNCLKCGSILGPFFQDSNEEIRISFCTNCKSKGPFRVNGEKTVYRNYQRVTLQEAPGTVPPGRLPRHREVILLADLVDVSKPGEEVEVTGIYKNNYDGNLNAKNGFPVFATIIEANSIKRREGNTANEGEEGLDVFSWTEEEEREFRKISRDRGIIDKIISSMAPSIYGHRDIKTAVACSLFGGVPKNVNGKHSIRGDINVLLLGDPGTAKSQILKYVEKTAHRAVFATGQGASAVGLTASVRKDPITKEWTLEGGALVLADKGVCLIDEFDKMNDQDRTSIHEAMEQQSISISKAGIVTTLQARCSIIAAANPNGGRYNSTLPLAQNVSLTEPILSRFDILCVVRDLVDEEADERLATFVVDSHVRSHPENDEDREGEELKNNGESAIEQGEDEINEQLNARQRRLQRQRKKEEEISPIPQELLMKYIHYARTKIYPKLHQMDMDKVSRVYADLRRESISTGSFPITVRHLESILRIAESFAKMRLSEFVSSYDLDRAIKVVVDSFVDAQKVSVRRQLRRSFAIYTLGH

Key:
[1] = target: Mcm2–7 hexamer (minichromosome maintenance proteins 2–7) (S. cerevisiae) (UniProt P29469); test: cryo-EM structure
[2] = target: T1, Mcm4 (subunit in the Mcm2–7 double …); test: negative stain EM, 3D reconstruction

| Molecule | stoichiometry N [1] | binding result [2] |
| --- | --- | --- |
| Mcm2–7 hexamer (minichromosome maintenance proteins 2–7) (from UniProt P29469;P24279;P30665;P29496;P53091;P38132) (complex) | 2 | – |
| B1 | – | binds |
| B2 | – | binds |
